# Laboratory results reported in patent US6022720A, “Bax protein channel formation” (Glaxo Wellcome Inc., priority 1997, dated 2000).
# B1: stathmin: unrelated control protein (protein, UniProt P16949 2-149, looked up)
# Stathmin: ASSDIQVKELEKRASGQAFELILSPRSKESVPEFPLSPPKKKDLSLEEIQKKLEAAEERRKSHEAEVLKQLAEKREHEKEVLQKAIEENNNFSKMAEEKLTHKMEANKENREAQMAAKLERLREKDKHIEEVRKNKESKDPADETEAD
# Columns and labels:
# sympathetic neurons = assay: Lytic effects of added protein on sympathetic neurons; format: cell-based; details: coaddition of control protein with 10 μM Bax
# Procedure: The effect of soluble recombinant Bax and Bcl-2 on the integrity of sympathetic neurons and sheep erythrocytes was tested. Ten μM Bax protein was added to serum-free medium of sympathetic neurons. […] (see FIG. 7B).
# Bax = target: T1, Bax (Homo sapiens, UniProt Q07812); assay: Inhibition of Bax-induced release of carboxyfluorescein from liposomes; format: biochemical; details: control protein preincubated with liposomes before Bax 70 nm
# T1 construct: GST (pGEX2T, thrombin site) (N, cleaved yes); made in house; host or cells: E. coli PR745
# T1 sequence (Q07812 with tags, fused parts or gaps limits assumed): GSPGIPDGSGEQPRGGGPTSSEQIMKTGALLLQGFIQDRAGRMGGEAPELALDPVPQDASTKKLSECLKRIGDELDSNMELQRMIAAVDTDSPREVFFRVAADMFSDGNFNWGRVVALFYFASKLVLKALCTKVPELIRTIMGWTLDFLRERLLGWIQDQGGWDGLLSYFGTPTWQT
# Procedure: To determine whether Bax was a pore-forming protein, a study was undertaken to determine whether Bax could trigger the release of liposome-encapsulated carboxyfluorescein. […] The liposomes were dialyzed for 24 hours against PBS and diluted to 8 ml. For analysis at acidic pH, fluorescence of released dye was measured after adjustment of pH to 7.5 by addition of 1 M Tris-HCl pH 7.5.
# In each test 20 μl of liposomes containing 20 mM carboxyfluorescein was diluted in 1 ml of PBS (pH 7.5) and 5 μl of purified protein was added at the time indicated by the arrow. Incubation was performed at room temperature. Final Bax concentrations are indicated for each curve (see FIG. 8A). Bcl-2 was tested at 70 nM. Each curve of FIG. 8A was normalized by subtraction of the initial fluorescence value obtained at time 0.
# Liposomes (20 μl in 1 ml PBS) were first incubated (15 min at room temperature) with Bcl-2 or with a control protein (stathmin) before addition of Bax (70 nm) to the liposome solution.
# After addition of the compound, 80 nM Bax was added to the liposome suspension and the fluorescence measured with a spectrofluorimeter.
Molecule,effect on Bax-induced neuronal lysis upon coaddition (sympathetic neurons),effect on Bax function (carboxyfluorescein efflux) (Bax)
ERK2: control protein [reference compound],no effect,
B1,no effect,no adverse effect
